* marks the point of attachment. C18 diacid = O=C(O)CCCCCCCCCCCCCCCCC(=O)*

In test [1] the target is T1, human amylin 3(a) receptor (human calcitonin receptor co-expressed with RAMP-3) (human, UniProt P30988 25-474; O60896 24-148, limits assumed).
T1 sequence (looked up) 1: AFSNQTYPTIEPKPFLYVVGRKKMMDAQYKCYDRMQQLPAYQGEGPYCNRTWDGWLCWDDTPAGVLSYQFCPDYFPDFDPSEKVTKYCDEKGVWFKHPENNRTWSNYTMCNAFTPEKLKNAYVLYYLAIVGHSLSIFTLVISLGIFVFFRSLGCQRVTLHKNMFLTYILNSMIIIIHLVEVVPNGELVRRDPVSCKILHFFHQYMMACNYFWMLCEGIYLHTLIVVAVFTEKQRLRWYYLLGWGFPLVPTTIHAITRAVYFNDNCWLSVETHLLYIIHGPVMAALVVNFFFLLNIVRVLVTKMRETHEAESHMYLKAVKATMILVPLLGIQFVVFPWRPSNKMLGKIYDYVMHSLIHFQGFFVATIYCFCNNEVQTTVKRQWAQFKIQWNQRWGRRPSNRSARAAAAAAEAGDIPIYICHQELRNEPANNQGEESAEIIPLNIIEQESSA
T1 sequence (looked up) 2: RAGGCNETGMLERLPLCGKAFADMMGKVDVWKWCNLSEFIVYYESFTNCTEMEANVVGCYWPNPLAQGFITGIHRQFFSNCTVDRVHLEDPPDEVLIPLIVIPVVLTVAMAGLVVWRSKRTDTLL
In words: cell-based or functional assay.

Test [2] has as its target T2, human calcitonin receptor (human, UniProt P30988 25-474).
T2 sequence (looked up): T1 sequence (looked up) 1
In words: cell-based or functional assay.

B1: [N-terminal(C18 diacid), 9V, 10I]mimylin (peptide)
peptide: {C18 diacid}-EASELSTAVIGRLSAELHELATLPRTETGPESP-NH2
SMILES: CC[C@H](C)[C@H](NC(=O)[C@@H](NC(=O)[C@H](C)NC(=O)[C@@H](NC(=O)[C@H](CO)NC(=O)[C@H](CC(C)C)NC(=O)[C@H](CCC(=O)O)NC(=O)[C@H](CO)NC(=O)[C@H](C)NC(=O)[C@H](CCC(=O)O)NC(=O)CCCCCCCCCCCCCCCCC(=O)O)[C@@H](C)O)C(C)C)C(=O)NCC(=O)N[C@@H](CCCNC(=N)N)C(=O)N[C@@H](CC(C)C)C(=O)N[C@@H](CO)C(=O)N[C@@H](C)C(=O)N[C@@H](CCC(=O)O)C(=O)N[C@@H](CC(C)C)C(=O)N[C@@H](Cc1c[nH]cn1)C(=O)N[C@@H](CCC(=O)O)C(=O)N[C@@H](CC(C)C)C(=O)N[C@@H](C)C(=O)N[C@H](C(=O)N[C@@H](CC(C)C)C(=O)N1CCC[C@H]1C(=O)N[C@@H](CCCNC(=N)N)C(=O)N[C@H](C(=O)N[C@@H](CCC(=O)O)C(=O)N[C@H](C(=O)NCC(=O)N1CCC[C@H]1C(=O)N[C@@H](CCC(=O)O)C(=O)N[C@@H](CO)C(=O)N1CCC[C@H]1C(N)=O)[C@@H](C)O)[C@@H](C)O)[C@@H](C)O
As for B1, in test [1], the “hAmylin-R funct. EC50 (pM)” value came to 7 pM. Also, the “hCTR funct. EC50 (pM)” value in test [2] was found to be 6 pM.

B2: [N-terminal(C18 diacid), 4P, 9V]mimylin (peptide)
peptide: {C18 diacid}-EASPLSTAVLGRLSAELHELATLPRTETGPESP-NH2
SMILES: CC(C)C[C@H](NC(=O)[C@H](CCC(=O)O)NC(=O)[C@H](Cc1c[nH]cn1)NC(=O)[C@H](CC(C)C)NC(=O)[C@H](CCC(=O)O)NC(=O)[C@H](C)NC(=O)[C@H](CO)NC(=O)[C@H](CC(C)C)NC(=O)[C@H](CCCNC(=N)N)NC(=O)CNC(=O)[C@H](CC(C)C)NC(=O)[C@@H](NC(=O)[C@H](C)NC(=O)[C@@H](NC(=O)[C@H](CO)NC(=O)[C@H](CC(C)C)NC(=O)[C@@H]1CCCN1C(=O)[C@H](CO)NC(=O)[C@H](C)NC(=O)[C@H](CCC(=O)O)NC(=O)CCCCCCCCCCCCCCCCC(=O)O)[C@@H](C)O)C(C)C)C(=O)N[C@@H](C)C(=O)N[C@H](C(=O)N[C@@H](CC(C)C)C(=O)N1CCC[C@H]1C(=O)N[C@@H](CCCNC(=N)N)C(=O)N[C@H](C(=O)N[C@@H](CCC(=O)O)C(=O)N[C@H](C(=O)NCC(=O)N1CCC[C@H]1C(=O)N[C@@H](CCC(=O)O)C(=O)N[C@@H](CO)C(=O)N1CCC[C@H]1C(N)=O)[C@@H](C)O)[C@@H](C)O)[C@@H](C)O
Turning to B2, the “hAmylin-R funct. EC50 (pM)” value in test [1] was found to be 14 pM. In addition, the “hCTR funct. EC50 (pM)” value in test [2] amounted to 7 pM.

B3: [N-terminal(C18 diacid), 9L, 10A]mimylin (peptide)
peptide: {C18 diacid}-EASELSTALAGRLSAELHELATLPRTETGPESP-NH2
SMILES: CC(C)C[C@H](NC(=O)[C@H](C)NC(=O)[C@@H](NC(=O)[C@H](CO)NC(=O)[C@H](CC(C)C)NC(=O)[C@H](CCC(=O)O)NC(=O)[C@H](CO)NC(=O)[C@H](C)NC(=O)[C@H](CCC(=O)O)NC(=O)CCCCCCCCCCCCCCCCC(=O)O)[C@@H](C)O)C(=O)N[C@@H](C)C(=O)NCC(=O)N[C@@H](CCCNC(=N)N)C(=O)N[C@@H](CC(C)C)C(=O)N[C@@H](CO)C(=O)N[C@@H](C)C(=O)N[C@@H](CCC(=O)O)C(=O)N[C@@H](CC(C)C)C(=O)N[C@@H](Cc1c[nH]cn1)C(=O)N[C@@H](CCC(=O)O)C(=O)N[C@@H](CC(C)C)C(=O)N[C@@H](C)C(=O)N[C@H](C(=O)N[C@@H](CC(C)C)C(=O)N1CCC[C@H]1C(=O)N[C@@H](CCCNC(=N)N)C(=O)N[C@H](C(=O)N[C@@H](CCC(=O)O)C(=O)N[C@H](C(=O)NCC(=O)N1CCC[C@H]1C(=O)N[C@@H](CCC(=O)O)C(=O)N[C@@H](CO)C(=O)N1CCC[C@H]1C(N)=O)[C@@H](C)O)[C@@H](C)O)[C@@H](C)O
Regarding B3, the “hAmylin-R funct. EC50 (pM)” value in test [1] was determined as 8 pM. In addition, the “hCTR funct. EC50 (pM)” value in test [2] was 4 pM.

B4: [N-terminal(C18 diacid), 2P, 9V]mimylin (peptide)
peptide: {C18 diacid}-EPSELSTAVLGRLSAELHELATLPRTETGPESP-NH2
SMILES: CC(C)C[C@H](NC(=O)[C@H](CCC(=O)O)NC(=O)[C@H](Cc1c[nH]cn1)NC(=O)[C@H](CC(C)C)NC(=O)[C@H](CCC(=O)O)NC(=O)[C@H](C)NC(=O)[C@H](CO)NC(=O)[C@H](CC(C)C)NC(=O)[C@H](CCCNC(=N)N)NC(=O)CNC(=O)[C@H](CC(C)C)NC(=O)[C@@H](NC(=O)[C@H](C)NC(=O)[C@@H](NC(=O)[C@H](CO)NC(=O)[C@H](CC(C)C)NC(=O)[C@H](CCC(=O)O)NC(=O)[C@H](CO)NC(=O)[C@@H]1CCCN1C(=O)[C@H](CCC(=O)O)NC(=O)CCCCCCCCCCCCCCCCC(=O)O)[C@@H](C)O)C(C)C)C(=O)N[C@@H](C)C(=O)N[C@H](C(=O)N[C@@H](CC(C)C)C(=O)N1CCC[C@H]1C(=O)N[C@@H](CCCNC(=N)N)C(=O)N[C@H](C(=O)N[C@@H](CCC(=O)O)C(=O)N[C@H](C(=O)NCC(=O)N1CCC[C@H]1C(=O)N[C@@H](CCC(=O)O)C(=O)N[C@@H](CO)C(=O)N1CCC[C@H]1C(N)=O)[C@@H](C)O)[C@@H](C)O)[C@@H](C)O
For the molecule B4, the “hAmylin-R funct. EC50 (pM)” value in test [1] is 8 pM. For the same molecule, the “hCTR funct. EC50 (pM)” value in test [2] came to 7 pM.

B5: [N-terminal(C18 diacid), 9V, 28P]mimylin (peptide)
peptide: {C18 diacid}-EASELSTAVLGRLSAELHELATLPRTEPGPESP-NH2
SMILES: CC(C)C[C@H](NC(=O)[C@H](CCC(=O)O)NC(=O)[C@H](Cc1c[nH]cn1)NC(=O)[C@H](CC(C)C)NC(=O)[C@H](CCC(=O)O)NC(=O)[C@H](C)NC(=O)[C@H](CO)NC(=O)[C@H](CC(C)C)NC(=O)[C@H](CCCNC(=N)N)NC(=O)CNC(=O)[C@H](CC(C)C)NC(=O)[C@@H](NC(=O)[C@H](C)NC(=O)[C@@H](NC(=O)[C@H](CO)NC(=O)[C@H](CC(C)C)NC(=O)[C@H](CCC(=O)O)NC(=O)[C@H](CO)NC(=O)[C@H](C)NC(=O)[C@H](CCC(=O)O)NC(=O)CCCCCCCCCCCCCCCCC(=O)O)[C@@H](C)O)C(C)C)C(=O)N[C@@H](C)C(=O)N[C@H](C(=O)N[C@@H](CC(C)C)C(=O)N1CCC[C@H]1C(=O)N[C@@H](CCCNC(=N)N)C(=O)N[C@H](C(=O)N[C@@H](CCC(=O)O)C(=O)N1CCC[C@H]1C(=O)NCC(=O)N1CCC[C@H]1C(=O)N[C@@H](CCC(=O)O)C(=O)N[C@@H](CO)C(=O)N1CCC[C@H]1C(N)=O)[C@@H](C)O)[C@@H](C)O
Take B5: the “hAmylin-R funct. EC50 (pM)” value in test [1] came to 31 pM. For the same molecule, the “hCTR funct. EC50 (pM)” value in test [2] amounted to 12 pM.

B6: [N-terminal(C18 diacid), 3P, 9V]mimylin (peptide)
peptide: {C18 diacid}-EAPELSTAVLGRLSAELHELATLPRTETGPESP-NH2
SMILES: CC(C)C[C@H](NC(=O)[C@H](CCC(=O)O)NC(=O)[C@H](Cc1c[nH]cn1)NC(=O)[C@H](CC(C)C)NC(=O)[C@H](CCC(=O)O)NC(=O)[C@H](C)NC(=O)[C@H](CO)NC(=O)[C@H](CC(C)C)NC(=O)[C@H](CCCNC(=N)N)NC(=O)CNC(=O)[C@H](CC(C)C)NC(=O)[C@@H](NC(=O)[C@H](C)NC(=O)[C@@H](NC(=O)[C@H](CO)NC(=O)[C@H](CC(C)C)NC(=O)[C@H](CCC(=O)O)NC(=O)[C@@H]1CCCN1C(=O)[C@H](C)NC(=O)[C@H](CCC(=O)O)NC(=O)CCCCCCCCCCCCCCCCC(=O)O)[C@@H](C)O)C(C)C)C(=O)N[C@@H](C)C(=O)N[C@H](C(=O)N[C@@H](CC(C)C)C(=O)N1CCC[C@H]1C(=O)N[C@@H](CCCNC(=N)N)C(=O)N[C@H](C(=O)N[C@@H](CCC(=O)O)C(=O)N[C@H](C(=O)NCC(=O)N1CCC[C@H]1C(=O)N[C@@H](CCC(=O)O)C(=O)N[C@@H](CO)C(=O)N1CCC[C@H]1C(N)=O)[C@@H](C)O)[C@@H](C)O)[C@@H](C)O
As to B6, the “hAmylin-R funct. EC50 (pM)” value in test [1] was 10 pM. In addition, the “hCTR funct. EC50 (pM)” value in test [2] came to 7 pM.

B7: [N-terminal(C18 diacid), 9V, 25P]mimylin (peptide)
peptide: {C18 diacid}-EASELSTAVLGRLSAELHELATLPPTETGPESP-NH2
SMILES: CC(C)C[C@H](NC(=O)[C@H](CCC(=O)O)NC(=O)[C@H](Cc1c[nH]cn1)NC(=O)[C@H](CC(C)C)NC(=O)[C@H](CCC(=O)O)NC(=O)[C@H](C)NC(=O)[C@H](CO)NC(=O)[C@H](CC(C)C)NC(=O)[C@H](CCCNC(=N)N)NC(=O)CNC(=O)[C@H](CC(C)C)NC(=O)[C@@H](NC(=O)[C@H](C)NC(=O)[C@@H](NC(=O)[C@H](CO)NC(=O)[C@H](CC(C)C)NC(=O)[C@H](CCC(=O)O)NC(=O)[C@H](CO)NC(=O)[C@H](C)NC(=O)[C@H](CCC(=O)O)NC(=O)CCCCCCCCCCCCCCCCC(=O)O)[C@@H](C)O)C(C)C)C(=O)N[C@@H](C)C(=O)N[C@H](C(=O)N[C@@H](CC(C)C)C(=O)N1CCC[C@H]1C(=O)N1CCC[C@H]1C(=O)N[C@H](C(=O)N[C@@H](CCC(=O)O)C(=O)N[C@H](C(=O)NCC(=O)N1CCC[C@H]1C(=O)N[C@@H](CCC(=O)O)C(=O)N[C@@H](CO)C(=O)N1CCC[C@H]1C(N)=O)[C@@H](C)O)[C@@H](C)O)[C@@H](C)O
Take B7: the “hAmylin-R funct. EC50 (pM)” value in test [1] turned out to be 14 pM. For the same molecule, in test [2], the “hCTR funct. EC50 (pM)” value amounted to 6 pM.

Source of the values: patent US20160272683A1 (Novo Nordisk, published 2016).
